Measured values from patent US20140377284A1 (BIOCEROX PRODUCTS B V, published 2014).

Tests used:
[1] = target: T1, human CD134 (full-length, on cells) (human, UniProt P43489 29-277); assay: flow cytometry, PHA-stimulated human CD3+ T lymphocytes
T1 sequence: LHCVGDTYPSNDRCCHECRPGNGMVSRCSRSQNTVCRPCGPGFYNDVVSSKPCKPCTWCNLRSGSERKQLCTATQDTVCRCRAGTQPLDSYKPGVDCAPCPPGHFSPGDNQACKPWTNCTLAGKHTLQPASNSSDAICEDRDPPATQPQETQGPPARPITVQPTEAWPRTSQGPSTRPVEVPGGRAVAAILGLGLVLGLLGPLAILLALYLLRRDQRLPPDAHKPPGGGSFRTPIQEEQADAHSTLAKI

[2] = target: T1, human CD134 (full-length, on cells); assay: cell-based or functional assay
[3] = target: T2, recombinant human CD134:human Fcγ (IgG1) fusion protein (human, UniProt P01857-1 100-330 = IgG part, limits assumed); assay: ELISA, plate-bound CD134:Fc 50 ng/well
T2 construct: domain: Fcγ (IgG1); Bought (R&D Systems); also called rhuCD134
T2 sequence (P01857 other isoform, or with tags, fused parts or gaps limits assumed): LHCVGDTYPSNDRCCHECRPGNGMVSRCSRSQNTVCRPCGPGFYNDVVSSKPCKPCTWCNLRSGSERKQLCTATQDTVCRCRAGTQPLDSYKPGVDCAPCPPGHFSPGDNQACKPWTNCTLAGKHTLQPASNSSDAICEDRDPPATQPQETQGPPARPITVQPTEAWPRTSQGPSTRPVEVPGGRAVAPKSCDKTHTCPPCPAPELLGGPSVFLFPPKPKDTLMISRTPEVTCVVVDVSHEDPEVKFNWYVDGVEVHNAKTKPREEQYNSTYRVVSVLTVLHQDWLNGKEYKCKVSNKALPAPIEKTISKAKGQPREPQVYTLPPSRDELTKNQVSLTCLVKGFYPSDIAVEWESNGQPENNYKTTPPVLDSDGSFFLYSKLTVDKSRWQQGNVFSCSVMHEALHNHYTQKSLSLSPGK
Method: Ninety six-wells flat-bottom ELISA plates (Corning) were coated with 50 ng/well recombinant human CD134:human Fcγ (IgG1) fusion protein (R&D Systems) in PBS o/n at 4° C. After extensive washing in PBS/0.05% Tween 20, plates were blocked in PBS/0.05% Tween 20/1% BSA fraction V (Roche) for 1 hour at RT. […] After extensive washing in PBS/0.05% Tween 20, binding of antibodies was determined with 1:5000 diluted horseradish peroxidase-conjugated goat anti-mouse (Fcγ specific) antibodies (Jackson ImmunoResearch) or with 1:4000 diluted horseradish peroxidase-conjugated goat anti-human κ-specific antibodies (Southern Biotech) for 1 hour at RT, followed by a ready-to-use solution of TMB substrate (Invitrogen) for colorimetric detection. After adding 1 M H₂SO₄, optical densities were measured at, a wavelength of 450 nm (reference wavelength of 655 nm) using a microplate reader (BioRad).

[4] = target: T1, human CD134 (full-length, on cells); assay: flow cytometry, stable CD134 293-F clone no. 23
Method: (§1) Full-length human CD134 (SEQ ID NO. 1) was re-cloned in a pcDNA3.1-derived expression plasmid (see Example 11 (d) below). […] After extensive washing in PBS/BSA/NaN₃, cells were subsequently incubated with 1:200 diluted PE-conjugated goat anti-mouse IgG (Fcγ specific) antibodies (Jackson ImmunoResearch) or with 1:200 diluted PE-conjugated goat anti-human IgG (Fcγ specific) antibodies (Jackson ImmunoResearch) for 30 minutes at 4° C. After extensive washing in PBS/BSA/NaN₃, cells were fixed in 2% formaldehyde in PBS/BSA/NaN₃ for 30 minutes at 4° C. Binding of antibodies was measured using flow cytometry (FACSCalibur; BD Biosciences).

[5] = target: T1, human CD134 (full-length, on cells); assay: competition flow cytometry, stable CD134 293-F clone no. 5; competitor biotinylated mouse 12H3 at 700 ng/mL
Method: Full-length human CD134 (SEQ ID NO1) was re-cloned in a pcDNA3.1-derived expression plasmid (see Example 11 (c) above). […] After extensive washing in PBS/BSA/NaN₃, cells were fixed in 2% formaldehyde in PBS/BSA/NaN₃ for 30 minutes at 4° C.

[6] = target: T1, human CD134 (full-length, on cells); assay: flow cytometry, stable CD134 293-F clone no. 5
Method: as §1

For “commercially available mouse anti-human CD134 antibody clone ACT35”, the EC50 [1] was 2.5 µg/mL and the saturating concentration [1] was 5 µg/mL.

B1: humanized IgG4κ anti-human CD134 antibody clone 12H3 version 12H3_VL1VH2 (antibody, V domains shown)
VH: QVQLVQSGAEVKKPGSSVKVSCKASGYTFKDYTMHWVRQAPGQGLEWIGGIYPNNGGSTYNQNFKDRVTLTADKSTSTAYMELSSLRSEDTAVYYCARMGYHGPHLDFDVWGQGTTVTVSS
VL: DIQMTQSPSSLSASVGDRVTITCKASQDVGAAVAWYQQKPGKAPKLLIYWASTRHTGVPSRFSGSGSGTDFTLTISSLQPEDFATYYCQQYINYPLTFGGGTKVEIKR
notes: Stabilized human IgG4/κ; end of each range computed; also called 12H3_VL1H2; 2H3 VL1VH2 (SF2)
In the case of B1, the “Replication Index, Treg/Teff ratio 0:1, donor 1” value [2] is reported as 13.9, the “Replication Index, Treg/Teff ratio 0:1, donor 2” value [2] is reported as 12.1 and the “Replication Index, Treg/Teff ratio 0:1, donor 3” value [2] is reported as 10.2. For the same molecule, the “Replication Index, Treg/Teff ratio 0:1, donor 4” value [2] was 10.7, the “Replication Index, Treg/Teff ratio 0:1, donor 5” value [2] was 8.66 and the “Replication Index, Treg/Teff ratio 1:2, donor 1” value [2] was 5.33. For the same molecule, the “Replication Index, Treg/Teff ratio 1:2, donor 2” value [2] was 5.82, the “Replication Index, Treg/Teff ratio 1:2, donor 3” value [2] was 6 and the “Replication Index, Treg/Teff ratio 1:2, donor 4” value [2] was 6.05. The “Replication Index, Treg/Teff ratio 1:2, donor 5” value [2] was 4.71, the “Replication Index, Treg/Teff ratio 1:4, donor 1” value [2] was 5.23 and the “Replication Index, Treg/Teff ratio 1:4, donor 2” value [2] was 5.21. For the same molecule, the “Replication Index, Treg/Teff ratio 1:4, donor 3” value [2] was 5.23, the “Replication Index, Treg/Teff ratio 1:4, donor 4” value [2] was 5.51 and the “Replication Index, Treg/Teff ratio 1:4, donor 5” value [2] was 4.81. The EC50 [3] was about 0.05 µg/mL, the EC50 [4] was under 0.2 µg/mL and the IC50 [5] was about 1.5 µg/mL.

B2: humanized IgG4κ anti-human CD134 antibody clone 12H3 version 12H3_VL1VH1 (antibody, V domains shown)
VH: QVQLVQSGAEVKKPGSSVKVSCKASGYTFKDYTMHWVRQAPGQGLEWMGGIYPNNGGSTYNQNFKDRVTITADKSTSTAYMELSSLRSEDTAVYYCARMGYHGPHLDFDVWGQGTTVTVSS
VL: DIQMTQSPSSLSASVGDRVTITCKASQDVGAAVAWYQQKPGKAPKLLIYWASTRHTGVPSRFSGSGSGTDFTLTISSLQPEDFATYYCQQYINYPLTFGGGTKVEIKR
notes: Stabilized human IgG4 (Angal et al.)/κ; also called 12H3_VL1H1
For B2, the EC50 [3] was about 0.05 µg/mL, the EC50 [4] was under 0.2 µg/mL and the IC50 [5] was about 1.5 µg/mL.

B3: humanized IgG4κ anti-human CD134 antibody clone 12H3 version 12H3_VL2VH1 (antibody, V domains shown)
VH: QVQLVQSGAEVKKPGSSVKVSCKASGYTFKDYTMHWVRQAPGQGLEWMGGIYPNNGGSTYNQNFKDRVTITADKSTSTAYMELSSLRSEDTAVYYCARMGYHGPHLDFDVWGQGTTVTVSS
VL: DIQMTQSPSSLSASVGDRVTITCKASQDVGAAVAWYQQKPGKAPKLLIYWASTRHTGVPDRFSGGGSGTDFTLTISSLQPEDFATYYCQQYINYPLTFGGGTKVEIKR
notes: Stabilized human IgG4/κ; end of each range computed; also called 12H3_VL2H1
For B3, the EC50 [3] was about 0.05 µg/mL, the EC50 [4] was under 0.2 µg/mL and the IC50 [5] was about 1.5 µg/mL.

B4: humanized IgG4κ anti-human CD134 antibody clone 20E5 version 20E5_VL1VH2 (antibody, V domains shown)
VH: QVQLVQSGAEVKKPGASVKVSCKASGYTFTSYVMHWVRQAPGQRLEWIGYINPYNDGTKYNEKFKGRATITSDTSASTAYMELSSLRSEDTAVYYCANYYGSSLSMDYWGQGTLVTVSS
VL: DIQMTQSPSSLSASVGDRVTITCRASQDISNYLNWYQQKPGKAPKLLIYYTSRLHSGVPSRFSGSGSGTDYTLTISSLQPEDFATYYCQQGNTLPWTFGQGTKVEIKR
notes: Stabilized human IgG4/κ; end of each range computed; also called 20E5_VL1H2; VL1H2
For B4, the EC50 [3] was about 0.15 µg/mL and the binding result [6] was “binds”.

B5: humanized IgG4κ anti-human CD134 antibody clone 20E5 version 20E5_VL1VH3 (antibody, V domains shown)
VH: QVQLVQSGAEVKKPGASVKVSCKASGYTFTSYVMHWVRQAPGQRLEWIGYINPYNDGTKYNEKFKGRATLTSDKSASTAYMELSSLRSEDTAVYYCANYYGSSLSMDYWGQGTLVTVSS
VL: DIQMTQSPSSLSASVGDRVTITCRASQDISNYLNWYQQKPGKAPKLLIYYTSRLHSGVPSRFSGSGSGTDYTLTISSLQPEDFATYYCQQGNTLPWTFGQGTKVEIKR
notes: Stabilized human IgG4/κ; end of each range computed; also called 20E5_VL1H3; 2-E5_VL1VH3
B5 was tested, and the EC50 [3] was about 0.1 µg/mL and the binding result [6] was “binds”.

B6: humanized IgG4κ anti-human CD134 antibody clone 20E5 version 20E5_VL2VH1 (antibody, V domains shown)
VH: QVQLVQSGAEVKKPGASVKVSCKASGYTFTSYVMHWVRQAPGQRLEWMGYINPYNDGTKYNEKFKGRVTITSDTSASTAYMELSSLRSEDTAVYYCANYYGSSLSMDYWGQGTLVTVSS
VL: DIQMTQSPSSLSASVGDRVTITCRASQDISNYLNWYQQKPGKAVKLLIYYTSRLHSGVPSRFSGSGSGTDYTLTISSLQPEDFATYFCQQGNTLPWTFGQGTKVEIKR
notes: Stabilized human IgG4/κ; end of each range computed; also called 20E5_VL2H1
B6 was tested, and the EC50 [3] was about 0.1 µg/mL and the binding result [6] was “binds”.

B7: humanized IgG4κ anti-human CD134 antibody clone 20E5 version 20E5_VL2VH2 (antibody, V domains shown)
VH: QVQLVQSGAEVKKPGASVKVSCKASGYTFTSYVMHWVRQAPGQRLEWIGYINPYNDGTKYNEKFKGRATITSDTSASTAYMELSSLRSEDTAVYYCANYYGSSLSMDYWGQGTLVTVSS
VL: DIQMTQSPSSLSASVGDRVTITCRASQDISNYLNWYQQKPGKAVKLLIYYTSRLHSGVPSRFSGSGSGTDYTLTISSLQPEDFATYFCQQGNTLPWTFGQGTKVEIKR
notes: Stabilized human IgG4/κ; end of each range computed
B7 was tested, and the EC50 [3] was about 0.1 µg/mL and the binding result [6] was “binds”.

B8: humanized IgG4κ anti-human CD134 antibody clone 20E5 version 20E5_VL2VH3 (antibody, V domains shown)
VH: QVQLVQSGAEVKKPGASVKVSCKASGYTFTSYVMHWVRQAPGQRLEWIGYINPYNDGTKYNEKFKGRATLTSDKSASTAYMELSSLRSEDTAVYYCANYYGSSLSMDYWGQGTLVTVSS
VL: DIQMTQSPSSLSASVGDRVTITCRASQDISNYLNWYQQKPGKAVKLLIYYTSRLHSGVPSRFSGSGSGTDYTLTISSLQPEDFATYFCQQGNTLPWTFGQGTKVEIKR
notes: as for B7
For B8, the EC50 [3] was about 0.1 µg/mL and the binding result [6] was “binds”.

B9: humanized IgG4κ anti-human CD134 antibody clone 12H3 version 12H3_VL2VH2 (antibody, V domains shown)
VH: QVQLVQSGAEVKKPGSSVKVSCKASGYTFKDYTMHWVRQAPGQGLEWIGGIYPNNGGSTYNQNFKDRVTLTADKSTSTAYMELSSLRSEDTAVYYCARMGYHGPHLDFDVWGQGTTVTVSS
VL: DIQMTQSPSSLSASVGDRVTITCKASQDVGAAVAWYQQKPGKAPKLLIYWASTRHTGVPDRFSGGGSGTDFTLTISSLQPEDFATYYCQQYINYPLTFGGGTKVEIKR
notes: Stabilized human IgG4/κ; end of each range computed; also called 12H3_VL2H2
B9 was tested, and the EC50 [3] was about 0.05 µg/mL, the EC50 [4] was under 0.2 µg/mL and the IC50 [5] was about 1.5 µg/mL.

B10: humanized IgG4κ anti-human CD134 antibody clone 12H3 version 12H3_VL1VH3 (antibody, V domains shown)
VH: QVQLVQSGAEVKKPGSSVKVSCKASGYTFKDYTMHWVRQAPGQGLEWIGGIYPNNGGSTYNQNFKDRATLTVDKSTSTAYMELSSLRSEDTAVYYCARMGYHGPHLDFDVWGQGTTVTVSS
VL: DIQMTQSPSSLSASVGDRVTITCKASQDVGAAVAWYQQKPGKAPKLLIYWASTRHTGVPSRFSGSGSGTDFTLTISSLQPEDFATYYCQQYINYPLTFGGGTKVEIKR
notes: Stabilized human IgG4/κ; end of each range computed; also called 12H3_VL1H3
B10 showed an EC50 [3] of about 0.05 µg/mL, an EC50 [4] of under 0.2 µg/mL and an IC50 [5] of about 1.5 µg/mL.

B11: humanized IgG4κ anti-human CD134 antibody clone 12H3 version 12H3_VL2VH3 (antibody, V domains shown)
VH: QVQLVQSGAEVKKPGSSVKVSCKASGYTFKDYTMHWVRQAPGQGLEWIGGIYPNNGGSTYNQNFKDRATLTVDKSTSTAYMELSSLRSEDTAVYYCARMGYHGPHLDFDVWGQGTTVTVSS
VL: DIQMTQSPSSLSASVGDRVTITCKASQDVGAAVAWYQQKPGKAPKLLIYWASTRHTGVPDRFSGGGSGTDFTLTISSLQPEDFATYYCQQYINYPLTFGGGTKVEIKR
notes: as for B7
In the case of B11, the EC50 [3] is reported as about 0.05 µg/mL, the EC50 [4] is reported as under 0.2 µg/mL and the IC50 [5] is reported as about 1.5 µg/mL.

B12: mouse anti-human CD134 monoclonal antibody clone 20E5 (antibody, V domains shown)
VH: EVQLQQSGPELVKPGASVKMSCKASGYTFTSYVMHWVKQKPGQGLEWIGYINPYNDGTKYNEKFKGKATLTSDKSSSTAYMELSSLTSEDSAVYYCANYYGSSLSMDYWGQGTSVTVSS
VL: DIQMTQTTSSLSASLGDRVTISCRASQDISNYLNWYQQKPDGTVKLLIYYTSRLHSGVPSRFSGSGSGTDYSLTISNLEQEDIATYFCQQGNTLPWTFGGGTKLEIKR
notes: also called m20E5; parental mouse anti-human CD134 antibody clone 20E5
B12 gave an EC50 [1] of about 2.5 µg/mL.
